Source: the DeepSol protein solubility set

Test: soluble on expression in E. coli; label from the status in PepcDB or PDB records

Sequence | soluble on expression in E. coli
MGSDKIHHHHHHMELKKLDEGLFWPDYKNSIVNFSNSILELFDEKPLHRPFRFPKRVLENVRKVIVMVIDGLSFEIFSDTIHDDDVQVFPCSAVFPTTTAAALPSLYSALTPLEHGFLGYILYLREVGSLVNMIEMSPPGLPRDSVLRFHDFKFTTIFQRLQSKVKSFFLIPRYLLGTGFSRIMSQGSEQIGFSSFGDMIERTLEVLEKHDRTLVFIYWPTLDSIAHKNGVGREYIRELRWIYRILKSELLRRLKQDTLFFLVSDHGQISTPQDNEIWWNFSSEVMRFLDRPPAGEQRMMFLYTKKKRALIEYLKEKYGDFAVFLDTKDVVQLFGTGRKHPEFFSRVGDAVLITRETFSFNYRYTGKEESLSGRHGSLSYQELVVPLVVYRRW | not soluble
MSLEIGEKLRNLRIQKNLTQEELGERTDLSKGYISQLERDLSSPSMETFFSILEVLGVTPEQFFSQQPLEQKIVYNEEESTLYYDEEHGYELKWLIPASNEKEMEPVIITFDKNGEYKTFEPSLSETFIYVIDGSIRLTLGEATYIAKKGQTMYYQATEPHQISNNGRGKSRALIVATESYLEGGSHHHHHH | soluble
MYRSFFYPTRLALLAVGRNFMPMAWWMPASKEPFRFLLAVDRKNHTLSLLRELSEAALAFYPWEERAWVVRAGYLSGGRVDKARRLGVPLRPACCLAHTQVPEGALAVYEMRVSEWPWDGDHALFMGEVVHVEGSAEAKERPILFLGFRDFATLGERWRFRPGGAKPLPREERGKP | soluble
MQNVKHSYLACSSSSCCQFFSLFLSLCHAEHQIQTLSPSFAYTLLIFALLVSDKSEIALLSRHTHTYIFLPISSVHPSLELLPFVVFMHMRKLLNDVIRPLKKGDGRSAWNVLIVDTLAMRMLSSCCKMHNIMEEGITIVEDLNKRREPLPTLEAIYLIAPTAESIDKLIQDYCARNLYKCAHVFFTEACSDQLFSTLSKSAAARFIKTLKEINIAFTPYESQVFNLDSPDTFFLYYNAQKQGGLTSNLERIAEQIATVCATLGEYPSLRYRADFERNVELGHLVEQKLDAYKADDPSMGEGADKARSQLIIIDRGYDAITPLLHELTLQAMCYDLLGIENDVYKYETGGSDENLEKEVLLDENDDLWVEMRHKHIAVVSQEVTKNLKKFSESKGNKGTMDSKSIKDLSMLIKRMPQHKKELNKFSTHISLAEECMKQYQQGVDKLCKVEQDLSTGIDAEGERVRDAMKLMVPLLIDPAVRCEDRLRLILLYILSKNGITDENLNKLLQHANISMADKETITNAAYLGLNIVTDTGRKKTWTPTKKERPHEQVYQSSRWVPVIKDIIEDAIDERLDTKHFPFLAGRQVNQGYRAPASARYGQWHKERGQQSNYRSGPRLIIYIIGGVTFSEMRACYEVTAARKPWEVVIGSDRIITPDKFLTNLRDLNKPRDI | soluble
MPVVTAVGRRRGFAMPWVSTARSGAVMLANYSAGVCGRVSSPGLNVRKMCLKANTPGAVTWLDTPKRFLSTQTASRCMAVNSSDVVTGRIDPQVLHTPLNTDVDGYAHAMHSSINSGPLEYLPATFSVFPALGDVGDLGGGVGAATYALDRLSNMRSGACVGGGESPWRSLMT | not soluble
MAGDPMSMHPALKYIQGYPQHIVEQVAQLIANDKLIPWFEQRYPERHDIQSEKALFDFTMALKNQYMKKTAPLSKVVYDGKIHLINNALGLHSYVSRVHGNKLKAKNEIRIANVFKQAPEPLLRMLVVHELAHLKEKEHNKAFYQLCCHMEPNYHQLELDARLYMMVLELKAGKALEHHHHHH | not soluble
MGSDKIHHHHHHMPNIPLRVNSLATEHPNNAQNSDKMPTFDAIFSHLSAIASHNSHQIIALLPSSDANWPAALIAERLTQAGSKQHLQKQHLHLHLFAQHQASWLKALAESETLASPAKEQIKAICDARVSGSHRLKLVNARLIIDIHLGDPLTQLKDLVSPSLASQAIQGWLANTQATDEALIWQMARLSQDNAEFLLLENNDVNLDKTSNNANTNLLTQLIIKAGFTCYRLNLSLKDDQLVTLAEKPSLASLEIAMVERRALRRQQLDKFAFNPLTQGREGETAIIGGGVASANLALSLAERGKKVSFFCMDKAPGEQASGNKQGAIYPLLTPEHGSLSHYFLLGYLFSRQRIKQLLESGHEIPHDFCGVLQTGHDERSHKRLTKIINAQPWAESIARPVDALQATALAGVTIEHQGIYYPLAGWVSPQ | not soluble
GPGSMLRRTLYALTRPRDSAAASRDKAHFDVCVIGGGPAGIAAALRAADYNKRVCVVEKARLGGNDLWDGALQSKTMWECSAIMAKMRGDAAMRLYGESLDRYLEIDEVKMRQSMEQVSRIREEQIQAALKASPNVELVLGRATFSSNHEIQCHSKRTKEFRSITADYFIVATGSKPRKHPYVAADGRLVMTSDHIMRAPLPKSLVIVGAGVIGCEFASIIGRLGKTKVSIIDKAPHILPREDPDIVRMIESGMDRAGIVVHHNSDLYDMQPWEETVEEAKARHPADPAPQSGVQYTVMDRTTRKLTTFQVERALISIGRVPDYSRLGIENTTLKTRGSQLHVNEFGQCVGTPHIFAVGDAATHMQLVSMGEAQAKLAVDYIYGTEPKVVPNLTETMSSVAFLTRAVASVGYNESQCREKGIAYIAARYSYEVVSRAVAAANTKGFVKIICADDPERRILGVRALGMNASTLVDIGALAIQNGQGVFDLAGRLTAYPAVSQAFQECLRSILDLSAQLHADPARGVKLTKWTPPDMSRGVAYKGKATAPGESSPRQSGWVIH | not soluble
MSLNKSTVDYQNAKILMDNFYSSREININGDNVTIVINDIMYIPSIDELEIKNGDKNLIIKFDRDGNKVKYKDIECIEYLNLKKGEEISLFNKSYIVEDITSNYVILKEKDGKEVLTNESFEYDGYKVVVKLVSSDLNTIIVDIYKNEKVLDSPKLTKGKIYYMKGGTLGLMYENCTRIGKGYRFTFRVYSTIKIEEGEDYPLDKEFKVKEISTDKIKLEYKNIDSLGNEIYLFNYTIIPEKCYKDYVLFKVIKRKEKTVDVKDVAYIGDGIYAVKVNNTVHVFYKGKELKNHEKIYLGSVDVYSSNPLNVNKDIILIGGPKVNKIVKELEDKGLLKVNISTNYPGNNRGIILKIKNPYNDNNIYILAGSDRWGTKAAILVFLTKYNDEDTLMVEWDKGEIKIIKEGHHHHHH | soluble
MGSSHHHHHHSQDPMLSKDIIKLLNEQVNKEMNSSNLYMSMSSWCYTHSLDGAGLFLFDHAAEEYEHAKKLIIFLNENNVPVQLTSISAPEHKFEGLTQIFQKAYEHEQHISESINNIVDHAIKSKDHATFNFLQWYVAEQHEEEVLFKDILDKIELIGNENHGLYLADQYVKGIAKSRKS | soluble
MGSDKIHHHHHHMAGANNPVITIKRGLDIPIAGEPLQQIDDAPKTTQVALIGEEYVGLKPTMSVEVGDHVVKGQVLFEDKKTPGVLFTAPASGVVCAINRGERRVLQSVVIDCDATQEPAIILESVDIHALSHQAVKDGLVRSGLWTALRTRPFSRVPQLDAAPAGIFVTAIDTNPLAPDPRVIIATQPQAFQAGLFALTFLTTEKVYLCQDDGASLLADASSEYDLSKVSVQRFNGVHPAGLVGTHIHFLLPASIERQVWHVGYQDVIAFGKLFLTGELYTDRIVALGGPNVLKPRLVRTQLGAKLSEWVNGEIDQRQSRIVSGSLLSGHTAADVYDFLGRFHNQISVLTENERQELLPWVRHDSSKFSLTGIMMSGFSRTKKLFDFTTNAGGSPRAMMAFGQLARVMPLDILPILLVRDLVVRDTDEAQLLGALELDEEDLALCTFVCPGKYDFGKELRACLDIIEREG | not soluble
MYEIIRMGVRNMLITFHSKVAAEVLMRTDDAAPLLRAAGKSFRDAIPERGVFTADQLQSAITGLERAIAAADRSPPDDDEPHPDKEPVHPIELAVGLHQRAFPLLDMMRKTAAAGADLTWEVSRGW | not soluble
